According to article PMC6513101, “Experimentally guided computational antibody affinity maturation with de novo docking, modelling and rational design” (PLoS Computational Biology, 2019):

Biological target: T1, biotinylated murine CCL20 (Mus musculus, UniProt O89093, biotin)
T1 construct: CCL20, mouse; recombinant; m2 with biotin; also called biotinylated muCCL20; muCCL20 antigen; source: in-house, standard mammalian cell expression; biotinylated
Assay: ELISA; capture ELISA: plate-coated anti-mouse Fc antibody (1 ug/mL) captures the antibody variant (5 ug/mL); biotinylated muCCL20 titrated from 0 to 600 nM, 1 h
Conditions: both partners purified

B1: AB1 affinity maturation variant 19 (L:F114R) (antibody, V domains shown)
VH: QVQLQQSGAELAKPGSSVKISCKAYGSSFTTNSIHWIKQTTGQALEWTGYIAPGSGGARYNEKFKGKATLTVDKSSGTAYMQLSSLTPVDTAVYYCALNIGTNPFTYWGQGTLVTVSS
VL: DIVMTQGALPNPVPSGESVSITCRSSKSLLYSDGKTYLNWYLQRPGQSPQLLIYWMSTRASGVSDRFSGSGSGTDFTLKISGVEAEDVGVYYCQQGLERPRTFGSGTKLEIK
notes: IMGT numbering; IgG1, as m1; source: HEK293FT, transiently transfected, purified (Protein A)
binding result: binds

B2: AB1 alanine variant 3 (H:R66A) (antibody, V domains shown)
VH: QVQLQQSGAELAKPGSSVKISCKAYGSSFTTNSIHWIKQTTGQALEWTGYIAPGSGGAAYNEKFKGKATLTVDKSSGTAYMQLSSLTPVDTAVYYCALNIGTNPFTYWGQGTLVTVSS
VL: DIVMTQGALPNPVPSGESVSITCRSSKSLLYSDGKTYLNWYLQRPGQSPQLLIYWMSTRASGVSDRFSGSGSGTDFTLKISGVEAEDVGVYYCQQGLEFPRTFGSGTKLEIK
notes: as for B1
binding result: binds

B3: AB1 alanine variant 2 (H:T35A) (antibody, V domains shown)
VH: QVQLQQSGAELAKPGSSVKISCKAYGSSFATNSIHWIKQTTGQALEWTGYIAPGSGGARYNEKFKGKATLTVDKSSGTAYMQLSSLTPVDTAVYYCALNIGTNPFTYWGQGTLVTVSS
VL: DIVMTQGALPNPVPSGESVSITCRSSKSLLYSDGKTYLNWYLQRPGQSPQLLIYWMSTRASGVSDRFSGSGSGTDFTLKISGVEAEDVGVYYCQQGLEFPRTFGSGTKLEIK
notes: as for B1
binding result: binds

B4: AB1 alanine variant 13 (H:T110A) (antibody, V domains shown)
VH: QVQLQQSGAELAKPGSSVKISCKAYGSSFTTNSIHWIKQTTGQALEWTGYIAPGSGGARYNEKFKGKATLTVDKSSGTAYMQLSSLTPVDTAVYYCALNIGANPFTYWGQGTLVTVSS
VL: DIVMTQGALPNPVPSGESVSITCRSSKSLLYSDGKTYLNWYLQRPGQSPQLLIYWMSTRASGVSDRFSGSGSGTDFTLKISGVEAEDVGVYYCQQGLEFPRTFGSGTKLEIK
notes: as for B1
binding result: binds

B5: AB1 affinity maturation variant 20 (L:Q106Y) (antibody, V domains shown)
VH: QVQLQQSGAELAKPGSSVKISCKAYGSSFTTNSIHWIKQTTGQALEWTGYIAPGSGGARYNEKFKGKATLTVDKSSGTAYMQLSSLTPVDTAVYYCALNIGTNPFTYWGQGTLVTVSS
VL: DIVMTQGALPNPVPSGESVSITCRSSKSLLYSDGKTYLNWYLQRPGQSPQLLIYWMSTRASGVSDRFSGSGSGTDFTLKISGVEAEDVGVYYCQYGLEFPRTFGSGTKLEIK
notes: IMGT numbering; IgG1, as m1; also called neutral control mutation; source: HEK293FT, transiently transfected, purified (Protein A)
binding result: binds

B6: AB1 alanine variant 11 (H:Y55A) (antibody, V domains shown)
VH: QVQLQQSGAELAKPGSSVKISCKAYGSSFTTNSIHWIKQTTGQALEWTGAIAPGSGGARYNEKFKGKATLTVDKSSGTAYMQLSSLTPVDTAVYYCALNIGTNPFTYWGQGTLVTVSS
VL: DIVMTQGALPNPVPSGESVSITCRSSKSLLYSDGKTYLNWYLQRPGQSPQLLIYWMSTRASGVSDRFSGSGSGTDFTLKISGVEAEDVGVYYCQQGLEFPRTFGSGTKLEIK
notes: as for B1
binding result: no binding (tested: 600 nM)

B7: AB1 alanine variant 23 (H:T35A/N107A/L:Y31A) (antibody, V domains shown)
VH: QVQLQQSGAELAKPGSSVKISCKAYGSSFATNSIHWIKQTTGQALEWTGYIAPGSGGARYNEKFKGKATLTVDKSSGTAYMQLSSLTPVDTAVYYCALAIGTNPFTYWGQGTLVTVSS
VL: DIVMTQGALPNPVPSGESVSITCRSSKSLLASDGKTYLNWYLQRPGQSPQLLIYWMSTRASGVSDRFSGSGSGTDFTLKISGVEAEDVGVYYCQQGLEFPRTFGSGTKLEIK
notes: IMGT numbering; IgG1, as m1; intermediate construct; source: HEK293FT, transiently transfected, purified (Protein A)
binding result: no binding (tested: 600 nM)

B8: AB1 alanine variant 17 (L:Y38A) (antibody, V domains shown)
VH: QVQLQQSGAELAKPGSSVKISCKAYGSSFTTNSIHWIKQTTGQALEWTGYIAPGSGGARYNEKFKGKATLTVDKSSGTAYMQLSSLTPVDTAVYYCALNIGTNPFTYWGQGTLVTVSS
VL: DIVMTQGALPNPVPSGESVSITCRSSKSLLYSDGKTALNWYLQRPGQSPQLLIYWMSTRASGVSDRFSGSGSGTDFTLKISGVEAEDVGVYYCQQGLEFPRTFGSGTKLEIK
notes: as for B1
binding result: no binding (tested: 600 nM)

B9: AB1 alanine variant 22 (L:Y31A/D34A) (antibody, V domains shown)
VH: QVQLQQSGAELAKPGSSVKISCKAYGSSFTTNSIHWIKQTTGQALEWTGYIAPGSGGARYNEKFKGKATLTVDKSSGTAYMQLSSLTPVDTAVYYCALNIGTNPFTYWGQGTLVTVSS
VL: DIVMTQGALPNPVPSGESVSITCRSSKSLLASAGKTYLNWYLQRPGQSPQLLIYWMSTRASGVSDRFSGSGSGTDFTLKISGVEAEDVGVYYCQQGLEFPRTFGSGTKLEIK
notes: as for B7
binding result: no binding (tested: 600 nM)

B10: AB1 alanine variant 6 (H:S29A, L:Y31A, L:Y38A) (antibody, V domains shown)
VH: QVQLQQSGAELAKPGSSVKISCKAYGSAFTTNSIHWIKQTTGQALEWTGYIAPGSGGARYNEKFKGKATLTVDKSSGTAYMQLSSLTPVDTAVYYCALNIGTNPFTYWGQGTLVTVSS
VL: DIVMTQGALPNPVPSGESVSITCRSSKSLLASDGKTALNWYLQRPGQSPQLLIYWMSTRASGVSDRFSGSGSGTDFTLKISGVEAEDVGVYYCQQGLEFPRTFGSGTKLEIK
notes: as for B1
binding result: no binding (tested: 600 nM)

B11: AB1 alanine variant 18 (L:R116A) (antibody, V domains shown)
VH: QVQLQQSGAELAKPGSSVKISCKAYGSSFTTNSIHWIKQTTGQALEWTGYIAPGSGGARYNEKFKGKATLTVDKSSGTAYMQLSSLTPVDTAVYYCALNIGTNPFTYWGQGTLVTVSS
VL: DIVMTQGALPNPVPSGESVSITCRSSKSLLYSDGKTYLNWYLQRPGQSPQLLIYWMSTRASGVSDRFSGSGSGTDFTLKISGVEAEDVGVYYCQQGLEFPATFGSGTKLEIK
notes: as for B1
binding result: binds

B12: AB1 alanine variant 10 (H:S28A) (antibody, V domains shown)
VH: QVQLQQSGAELAKPGSSVKISCKAYGASFTTNSIHWIKQTTGQALEWTGYIAPGSGGARYNEKFKGKATLTVDKSSGTAYMQLSSLTPVDTAVYYCALNIGTNPFTYWGQGTLVTVSS
VL: DIVMTQGALPNPVPSGESVSITCRSSKSLLYSDGKTYLNWYLQRPGQSPQLLIYWMSTRASGVSDRFSGSGSGTDFTLKISGVEAEDVGVYYCQQGLEFPRTFGSGTKLEIK
notes: as for B1
binding result: binds

B13: AB1 alanine variant 14 (L:Y31A) (antibody, V domains shown)
VH: QVQLQQSGAELAKPGSSVKISCKAYGSSFTTNSIHWIKQTTGQALEWTGYIAPGSGGARYNEKFKGKATLTVDKSSGTAYMQLSSLTPVDTAVYYCALNIGTNPFTYWGQGTLVTVSS
VL: DIVMTQGALPNPVPSGESVSITCRSSKSLLASDGKTYLNWYLQRPGQSPQLLIYWMSTRASGVSDRFSGSGSGTDFTLKISGVEAEDVGVYYCQQGLEFPRTFGSGTKLEIK
notes: as for B1
binding result: binds

B14: AB1 alanine variant 21 (L:Y31A/Y38A) (antibody, V domains shown)
VH: QVQLQQSGAELAKPGSSVKISCKAYGSSFTTNSIHWIKQTTGQALEWTGYIAPGSGGARYNEKFKGKATLTVDKSSGTAYMQLSSLTPVDTAVYYCALNIGTNPFTYWGQGTLVTVSS
VL: DIVMTQGALPNPVPSGESVSITCRSSKSLLASDGKTALNWYLQRPGQSPQLLIYWMSTRASGVSDRFSGSGSGTDFTLKISGVEAEDVGVYYCQQGLEFPRTFGSGTKLEIK
notes: as for B7
binding result: no binding (tested: 600 nM)

B15: AB1 alanine variant 4 (H:N113A) (antibody, V domains shown)
VH: QVQLQQSGAELAKPGSSVKISCKAYGSSFTTNSIHWIKQTTGQALEWTGYIAPGSGGARYNEKFKGKATLTVDKSSGTAYMQLSSLTPVDTAVYYCALNIGTAPFTYWGQGTLVTVSS
VL: DIVMTQGALPNPVPSGESVSITCRSSKSLLYSDGKTYLNWYLQRPGQSPQLLIYWMSTRASGVSDRFSGSGSGTDFTLKISGVEAEDVGVYYCQQGLEFPRTFGSGTKLEIK
notes: as for B1
binding result: no binding (tested: 600 nM)

B16: AB1 alanine variant 8 (H:T110A, L:Y31A, L:D34A) (antibody, V domains shown)
VH: QVQLQQSGAELAKPGSSVKISCKAYGSSFTTNSIHWIKQTTGQALEWTGYIAPGSGGARYNEKFKGKATLTVDKSSGTAYMQLSSLTPVDTAVYYCALNIGANPFTYWGQGTLVTVSS
VL: DIVMTQGALPNPVPSGESVSITCRSSKSLLASAGKTYLNWYLQRPGQSPQLLIYWMSTRASGVSDRFSGSGSGTDFTLKISGVEAEDVGVYYCQQGLEFPRTFGSGTKLEIK
notes: as for B1
binding result: no binding (tested: 600 nM)

B17: AB1 alanine variant 15 (L:D34A) (antibody, V domains shown)
VH: QVQLQQSGAELAKPGSSVKISCKAYGSSFTTNSIHWIKQTTGQALEWTGYIAPGSGGARYNEKFKGKATLTVDKSSGTAYMQLSSLTPVDTAVYYCALNIGTNPFTYWGQGTLVTVSS
VL: DIVMTQGALPNPVPSGESVSITCRSSKSLLYSAGKTYLNWYLQRPGQSPQLLIYWMSTRASGVSDRFSGSGSGTDFTLKISGVEAEDVGVYYCQQGLEFPRTFGSGTKLEIK
notes: as for B1
binding result: no binding (tested: 600 nM)

B18: AB1 alanine variant 12 (H:N107A) (antibody, V domains shown)
VH: QVQLQQSGAELAKPGSSVKISCKAYGSSFTTNSIHWIKQTTGQALEWTGYIAPGSGGARYNEKFKGKATLTVDKSSGTAYMQLSSLTPVDTAVYYCALAIGTNPFTYWGQGTLVTVSS
VL: DIVMTQGALPNPVPSGESVSITCRSSKSLLYSDGKTYLNWYLQRPGQSPQLLIYWMSTRASGVSDRFSGSGSGTDFTLKISGVEAEDVGVYYCQQGLEFPRTFGSGTKLEIK
notes: as for B1
binding result: no binding (tested: 600 nM)

B19: AB1 alanine variant 9 (H:T35A, H:N107A, L:R116A) (antibody, V domains shown)
VH: QVQLQQSGAELAKPGSSVKISCKAYGSSFATNSIHWIKQTTGQALEWTGYIAPGSGGARYNEKFKGKATLTVDKSSGTAYMQLSSLTPVDTAVYYCALAIGTNPFTYWGQGTLVTVSS
VL: DIVMTQGALPNPVPSGESVSITCRSSKSLLYSDGKTYLNWYLQRPGQSPQLLIYWMSTRASGVSDRFSGSGSGTDFTLKISGVEAEDVGVYYCQQGLEFPATFGSGTKLEIK
notes: as for B1
binding result: no binding (tested: 600 nM)
